# In IntAct's records for PubMed 35512704:
# B1: Mothers against decapentaplegic homolog 4 (Homo sapiens), Q13485 (parent)
# chain: MDNMSITNTPTSNDACLSIVHSLMCHRQGGESETFAKRAIESLVKKLKEKKDELDSLITAITTNGAHPSKCVTIQRTLDGRLQVAGRKGFPHVIYARLWRWPDLHKNELKHVKYCQYAFDLKCDSVCVNPYHYERVVSPGIDLSGLTLQSNAPSSMMVKDEYVHDFEGQPSLSTEGHSIQTIQHPPSNRASTETYSTPALLAPSESNATSTANFPNIPVASTSQPASILGGSHSEGLLQIASGPQPGQQQNGFTGQPATYHHNSTTTWTGSRTAPYTPNLPHHQNGHLQHHPPMPPHPGHYWPVHNELAFQPPISNHPAPEYWCSIAYFEMDVQVGETFKVPSSCPIVTVDGYVDPSGGDRFCLGQLSNVHRTEAIERARLHIGKGVQLECKGEGDVWVRCLSDHAVFVQSYYLDREAGRAPGDAVHKIYPSAYIKVFDLRQCHRQMQQQAATAQAAAAAQAAAVAGNIPGPGSVGGIAPAISLSAAAGIGVDDLRRLCILRMSFVKGWGPDYPRQSIKETPCWIEIHLHRALQLLDEVLHTMPIADPQPLD
# partner: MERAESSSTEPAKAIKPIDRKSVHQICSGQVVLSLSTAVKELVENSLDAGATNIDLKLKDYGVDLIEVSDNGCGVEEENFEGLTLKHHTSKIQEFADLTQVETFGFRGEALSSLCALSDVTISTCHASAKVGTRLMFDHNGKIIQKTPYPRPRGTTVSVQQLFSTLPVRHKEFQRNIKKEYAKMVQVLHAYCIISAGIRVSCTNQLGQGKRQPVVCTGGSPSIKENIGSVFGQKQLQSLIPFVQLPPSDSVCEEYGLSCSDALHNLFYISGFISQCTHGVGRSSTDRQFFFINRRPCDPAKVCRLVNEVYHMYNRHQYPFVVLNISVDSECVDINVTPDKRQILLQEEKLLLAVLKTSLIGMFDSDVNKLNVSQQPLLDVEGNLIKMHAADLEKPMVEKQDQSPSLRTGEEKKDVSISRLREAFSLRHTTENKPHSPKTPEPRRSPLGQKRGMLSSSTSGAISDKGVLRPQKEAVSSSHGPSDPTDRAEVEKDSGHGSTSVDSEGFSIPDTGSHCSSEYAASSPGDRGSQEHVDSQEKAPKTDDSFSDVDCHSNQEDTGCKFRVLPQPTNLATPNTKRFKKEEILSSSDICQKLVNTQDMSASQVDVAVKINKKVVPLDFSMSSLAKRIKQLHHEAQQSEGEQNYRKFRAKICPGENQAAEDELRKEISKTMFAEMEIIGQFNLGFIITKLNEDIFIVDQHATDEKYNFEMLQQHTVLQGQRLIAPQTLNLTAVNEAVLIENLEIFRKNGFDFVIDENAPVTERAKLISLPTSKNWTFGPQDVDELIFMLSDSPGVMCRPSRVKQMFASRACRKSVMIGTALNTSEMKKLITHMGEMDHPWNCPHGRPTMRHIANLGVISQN
# B2: Mothers against decapentaplegic homolog 4 (Homo sapiens), Q13485 (parent)
# chain: B1 chain
# partner: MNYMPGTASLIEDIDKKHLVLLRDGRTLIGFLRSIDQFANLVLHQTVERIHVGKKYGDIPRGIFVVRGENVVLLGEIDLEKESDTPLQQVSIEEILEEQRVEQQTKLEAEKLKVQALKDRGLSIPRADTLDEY
# B3: Mothers against decapentaplegic homolog 4 (Homo sapiens), Q13485 (parent)
# chain: B1 chain
# partner: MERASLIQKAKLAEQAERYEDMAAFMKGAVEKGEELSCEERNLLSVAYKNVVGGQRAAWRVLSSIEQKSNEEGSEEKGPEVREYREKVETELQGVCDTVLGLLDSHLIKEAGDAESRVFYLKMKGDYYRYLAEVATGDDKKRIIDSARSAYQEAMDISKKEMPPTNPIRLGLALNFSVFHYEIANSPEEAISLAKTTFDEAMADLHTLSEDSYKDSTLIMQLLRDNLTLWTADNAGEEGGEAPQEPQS
# B4: Mothers against decapentaplegic homolog 4 (Homo sapiens), Q13485 (parent)
# chain: B1 chain
# partner: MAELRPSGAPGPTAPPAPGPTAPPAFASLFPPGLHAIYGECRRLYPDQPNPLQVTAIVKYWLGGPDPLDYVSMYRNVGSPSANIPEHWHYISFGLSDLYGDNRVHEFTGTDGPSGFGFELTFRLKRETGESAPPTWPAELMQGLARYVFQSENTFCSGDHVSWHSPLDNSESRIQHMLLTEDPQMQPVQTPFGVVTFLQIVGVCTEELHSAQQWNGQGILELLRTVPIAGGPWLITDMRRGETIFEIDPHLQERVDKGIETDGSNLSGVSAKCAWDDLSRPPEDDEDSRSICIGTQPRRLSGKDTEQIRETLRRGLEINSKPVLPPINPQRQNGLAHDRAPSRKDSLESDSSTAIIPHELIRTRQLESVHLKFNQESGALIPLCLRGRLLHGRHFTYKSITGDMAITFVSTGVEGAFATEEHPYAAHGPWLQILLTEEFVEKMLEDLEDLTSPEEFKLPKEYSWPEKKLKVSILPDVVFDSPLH
# B5: Mothers against decapentaplegic homolog 4 (Homo sapiens), Q13485 (parent)
# chain: B1 chain
# partner: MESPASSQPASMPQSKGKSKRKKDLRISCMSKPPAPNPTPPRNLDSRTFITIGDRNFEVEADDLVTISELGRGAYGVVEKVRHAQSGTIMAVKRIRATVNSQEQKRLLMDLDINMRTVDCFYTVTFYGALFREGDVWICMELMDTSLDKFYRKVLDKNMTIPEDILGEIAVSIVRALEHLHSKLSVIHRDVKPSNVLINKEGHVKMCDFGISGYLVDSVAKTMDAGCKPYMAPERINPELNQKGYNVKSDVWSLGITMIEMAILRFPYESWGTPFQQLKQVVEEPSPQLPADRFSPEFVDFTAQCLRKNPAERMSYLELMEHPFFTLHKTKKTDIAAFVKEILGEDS
# B6: Mothers against decapentaplegic homolog 4 (Homo sapiens), Q13485 (parent)
# chain: B1 chain
# partner: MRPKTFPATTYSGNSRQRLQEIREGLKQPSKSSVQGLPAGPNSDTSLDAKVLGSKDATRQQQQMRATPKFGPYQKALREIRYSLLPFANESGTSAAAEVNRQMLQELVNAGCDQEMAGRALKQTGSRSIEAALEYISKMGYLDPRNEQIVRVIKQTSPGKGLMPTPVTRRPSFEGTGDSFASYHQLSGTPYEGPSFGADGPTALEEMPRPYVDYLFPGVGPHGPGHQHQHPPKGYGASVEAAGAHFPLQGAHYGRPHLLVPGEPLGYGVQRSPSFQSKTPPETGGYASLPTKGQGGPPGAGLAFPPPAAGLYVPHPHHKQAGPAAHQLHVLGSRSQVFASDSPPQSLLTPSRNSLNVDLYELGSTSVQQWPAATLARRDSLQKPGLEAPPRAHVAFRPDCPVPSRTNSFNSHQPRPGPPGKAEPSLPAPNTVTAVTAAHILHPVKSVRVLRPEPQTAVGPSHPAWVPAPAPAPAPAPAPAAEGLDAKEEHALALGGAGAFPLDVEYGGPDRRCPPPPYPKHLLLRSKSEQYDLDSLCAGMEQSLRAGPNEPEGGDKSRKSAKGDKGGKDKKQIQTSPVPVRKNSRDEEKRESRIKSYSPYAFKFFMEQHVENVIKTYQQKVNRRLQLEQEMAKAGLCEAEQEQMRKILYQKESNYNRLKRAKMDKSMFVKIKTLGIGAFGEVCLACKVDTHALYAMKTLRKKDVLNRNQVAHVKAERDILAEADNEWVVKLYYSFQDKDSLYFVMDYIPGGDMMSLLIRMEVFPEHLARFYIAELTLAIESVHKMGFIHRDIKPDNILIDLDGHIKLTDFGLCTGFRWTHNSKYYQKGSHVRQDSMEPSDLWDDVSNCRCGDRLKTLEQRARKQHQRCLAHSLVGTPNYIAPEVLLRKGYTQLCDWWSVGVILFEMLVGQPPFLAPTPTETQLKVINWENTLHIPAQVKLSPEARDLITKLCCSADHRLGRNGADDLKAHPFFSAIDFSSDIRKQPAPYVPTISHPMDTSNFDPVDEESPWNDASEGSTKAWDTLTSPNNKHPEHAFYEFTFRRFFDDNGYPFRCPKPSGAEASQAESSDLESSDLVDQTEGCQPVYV
# B7: Mothers against decapentaplegic homolog 4 (Homo sapiens), Q13485 (parent)
# chain: B1 chain
# partner: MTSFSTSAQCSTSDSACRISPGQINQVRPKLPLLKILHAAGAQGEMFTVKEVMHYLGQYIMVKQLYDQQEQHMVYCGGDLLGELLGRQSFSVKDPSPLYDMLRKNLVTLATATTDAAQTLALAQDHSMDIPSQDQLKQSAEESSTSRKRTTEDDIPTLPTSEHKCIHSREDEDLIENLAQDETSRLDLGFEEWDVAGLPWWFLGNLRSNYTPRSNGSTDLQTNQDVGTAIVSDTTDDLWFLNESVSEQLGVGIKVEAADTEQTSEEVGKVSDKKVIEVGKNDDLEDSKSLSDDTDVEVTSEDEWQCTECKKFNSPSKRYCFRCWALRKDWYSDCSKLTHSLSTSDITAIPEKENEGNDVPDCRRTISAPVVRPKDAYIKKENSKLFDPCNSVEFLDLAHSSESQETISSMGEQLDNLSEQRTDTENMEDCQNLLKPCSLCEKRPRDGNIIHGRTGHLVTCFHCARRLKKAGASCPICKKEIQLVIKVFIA
# Variants of: B1
# Conditions: with pms2_human PMS2, P54278
row,effect of a mutation on the interaction,Variant
1,with no effect,D351H

# Variants of: B1
# Conditions: with pms2_human PMS2, P54278
# Remark: another data set of the same source
row,effect of a mutation on the interaction,Variant
1,with no effect,R361C

# Variants of: B1
# Conditions: with pms2_human PMS2, P54278
# Remark: another data set of the same source
row,effect of a mutation on the interaction,Variant
1,with no effect,R361H

# Variants of: B2
# Conditions: with lsm1_human LSM1, O15116
row,effect of a mutation on the interaction,Variant
1,with no effect,D351H

# Variants of: B2
# Conditions: with lsm1_human LSM1, O15116
# Remark: another data set of the same source
row,effect of a mutation on the interaction,Variant
1,with no effect,G386D

# Variants of: B2
# Conditions: with lsm1_human LSM1, O15116
# Remark: another data set of the same source
row,effect of a mutation on the interaction,Variant
1,with no effect,R361H

# Variants of: B2
# Conditions: with lsm1_human LSM1, O15116
# Remark: another data set of the same source
row,effect of a mutation on the interaction,Variant
1,with no effect,R361C

# Variants of: B3
# Conditions: with 1433s_human SFN
row,effect of a mutation on the interaction,Variant
1,with no effect,D351H

# Variants of: B3
# Conditions: with 1433s_human SFN
# Remark: another data set of the same source
row,effect of a mutation on the interaction,Variant
1,with no effect,R361H

# Variants of: B3
# Conditions: with 1433s_human SFN
# Remark: another data set of the same source
row,effect of a mutation on the interaction,Variant
1,with no effect,G386D

# Variants of: B4
# Conditions: with sufu_human SUFU
row,effect of a mutation on the interaction,Variant
1,with no effect,R361C

# Variants of: B4
# Conditions: with sufu_human SUFU
# Remark: another data set of the same source
row,effect of a mutation on the interaction,Variant
1,with no effect,R361H

# Variants of: B4
# Conditions: with sufu_human SUFU
# Remark: another data set of the same source
row,effect of a mutation on the interaction,Variant
1,with no effect,G386D

# Variants of: B4
# Conditions: with sufu_human SUFU
# Remark: another data set of the same source
row,effect of a mutation on the interaction,Variant
1,with no effect,D351H

# Variants of: B5
# Conditions: with mp2k3_human MAP2K3, P46734
row,effect of a mutation on the interaction,Variant
1,with no effect,G386D

# Variants of: B5
# Conditions: with mp2k3_human MAP2K3, P46734
# Remark: another data set of the same source
row,effect of a mutation on the interaction,Variant
1,with no effect,D351H

# Variants of: B5
# Conditions: with mp2k3_human MAP2K3, P46734
# Remark: another data set of the same source
row,effect of a mutation on the interaction,Variant
1,with no effect,R361C

# Variants of: B5
# Conditions: with mp2k3_human MAP2K3, P46734
# Remark: another data set of the same source
row,effect of a mutation on the interaction,Variant
1,with no effect,R361H

# Variants of: B6
# Conditions: with lats2_human LATS2, Q9NRM7
row,effect of a mutation on the interaction,Variant
1,with no effect,G386D

# Variants of: B6
# Conditions: with lats2_human LATS2, Q9NRM7
# Remark: another data set of the same source
row,effect of a mutation on the interaction,Variant
1,with no effect,R361H

# Variants of: B6
# Conditions: with lats2_human LATS2, Q9NRM7
# Remark: another data set of the same source
row,effect of a mutation on the interaction,Variant
1,with no effect,R361C

# Variants of: B6
# Conditions: with lats2_human LATS2, Q9NRM7
# Remark: another data set of the same source
row,effect of a mutation on the interaction,Variant
1,with no effect,D351H

# Variants of: B7
# Conditions: with mdm4_human MDM4, O15151
row,effect of a mutation on the interaction,Variant
1,with no effect,R361H

# Variants of: B7
# Conditions: with mdm4_human MDM4, O15151
# Remark: another data set of the same source
row,effect of a mutation on the interaction,Variant
1,with no effect,G386D
